Paper PMC10979003 (Nature Communications, 2024)
No end group written: not given here. *: point of attachment. Biotin = O=C1N[C@H]2[C@H](CS[C@H]2CCCCC(=O)*)N1

Biological target: T1, 6xHis tagged BCL-xL (UniProt Q07817-1 2-212)
T1 construct: BCL-xL; The cloning section gives BCL-xL only an N-terminal ULP1-cleavable SMT3 tag; also called self-made 6×His tagged BCL-xL; WT BCL-xL; source: self-made; E. coli BL21 (DE3) codon plus
Assay: AlphaScreen or HTRF; AlphaScreen displacement binding assay: Biotin-Bim or Biotin-Bad (15 nM for WT, 50 nM for mutants), 6xHis BCL-2 (25 nM WT, 50 nM mutants) or BCL-xL (10 nM WT, 50 nM mutants), compounds (753b, WH244) as displacers; anti-6xHis acceptor and streptavidin donor beads; 25 mM HEPES pH 7.5, 150 mM NaCl, 0.1% BSA, 0.005% tween 20; room temperature
Conditions: both partners purified

T1 sequence (Q07817 2-212): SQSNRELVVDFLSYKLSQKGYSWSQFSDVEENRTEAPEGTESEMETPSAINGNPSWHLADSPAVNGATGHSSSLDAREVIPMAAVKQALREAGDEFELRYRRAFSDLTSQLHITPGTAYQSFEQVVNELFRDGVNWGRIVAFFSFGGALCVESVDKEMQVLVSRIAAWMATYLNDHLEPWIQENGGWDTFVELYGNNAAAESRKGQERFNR

binding result: binds
B1: Biotin-tagged Bad (peptide)
peptide: Biotin-LWAAQRYGRELRRMSDEFEGSFKGL
notes: Bad peptide (BH3 stretch); also called Biotin-[residues removed]
